Data set [1] concerns T1, GST-rCtrA (Ehrlichia chaffeensis), ORF:1c7d897d.
T1 sequence: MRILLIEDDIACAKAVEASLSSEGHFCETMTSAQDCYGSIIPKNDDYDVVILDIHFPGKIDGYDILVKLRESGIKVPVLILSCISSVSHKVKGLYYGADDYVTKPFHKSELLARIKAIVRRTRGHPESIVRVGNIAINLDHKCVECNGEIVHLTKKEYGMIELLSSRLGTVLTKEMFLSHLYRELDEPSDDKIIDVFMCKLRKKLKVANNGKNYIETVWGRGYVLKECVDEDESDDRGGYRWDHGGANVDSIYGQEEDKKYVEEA
Description: EMSA.

In another data set the test system is NCC(=O)O. Description: inorganic phosphate formation, ascorbic acid-molybdate, OD750. The data set is classed as biochemical, Ehrlichia chaffeensis. As to conditions: 10 mM Na3ATP, 5 mM gamma-glutamylcysteine, 20 mM MgCl2, 50 mM KCl, 2 mM EDTA, 2.5 mM DTT, 100 mM Tris-HCl pH 8.2, 37°C, 30 min. From the text: inorganic phosphate formation, ascorbic acid-molybdate, OD750 on rGshB (E. chaffeensis GshB)

Substrate in data set [2]: N[C@@H](CCC(=O)O)C(=O)O
The description is as above. It is filed as biochemical, Ehrlichia chaffeensis. The note with it: 5 mM ATP, 10 mM L-alpha-aminobutyric acid, 20 mM MgCl2, 50 mM KCl, 2 mM EDTA, 100 mM Tris-HCl pH 8.0, 37°C, 30 min. The text has this: inorganic phosphate formation, ascorbic acid-molybdate, OD750 on SUMO-rGshA (E. chaffeensis GshA)

On to “ATATAACCTAATAGTGACAAATAAATTAACAATAGTAGAAGTGTCATATAAAAGCAAGTCAGAATATAAATTTTTGTATAAAATATCGGTAACTTTTGTAAGGAAAATTTAATATATTACGTCAGGTAAGTAATAGCAAAAAAACTGGTTAAGTATAGTATCATGTGTAAAGGTGAGAAAAACAGCACTTATAAACTAGTCCCCCCCCCCCCCCTCTTATTGCTACATTCTTTTGCCACTATTTTTATTTACCTGCAGCA (double strand) [p28 promoter probe, 260 bp]”, for which the binding result in data set [1] is “no binding”.

As to “rGshB (E. chaffeensis GshB) (Ehrlichia chaffeensis str. Arkansas)”, in the data set on NCC(=O)O, the Km – broadly, the concentration of substrate that gives half-maximal velocity – is 940 ± 320 µM and the Vmax – broadly, the rate approached at saturating substrate – turned out to be 0.63 µmol/min/mg.

B1: SUMO-rGshA (E. chaffeensis GshA) (Ehrlichia chaffeensis str. Arkansas) (protein)
chain: MTVIIDTLNDILTKYKLDIENWFFNKFTKYNPVLNISVDLRVSDYKIAPVDTNIFPAGYNNFTEQSQIYASRLLREYVVNYANCSKILIIAENHTRNLKYIDSLIVLKNIVNNAGFVVEVGICNINQNIELISSTGRVINCLCLTNDNGVLRAGCRFIPDLILVNNDMTSGIPEVLQGLKYQSIMPSLFLGWFNRSKSNHFSIYKKLSKEFCESFNIDPWLISAFFSSCSNICFFNSQGIDDIANEVDVVISKIRNKFQLYSIKEQPYVFVKADNGTYGMGILVAYCGDDILMLNRKKRNKMKKIKDGNVVSSVIIQEGITTREIFNGYVAEPLVYFIGHTPSCYLYRYHSVKDRFSNLNSVGCDFIDISYKQQDILYWNIIGKIAVLAAAIEMHEISNVNVMEQNCLLS
notes: tag kept
Regarding B1, in data set [2], the Km came out at 1030 ± 20 µM and the Vmax turned out to be 0.52 µmol/min/mg.
